Patent publication US20060154340A1

Biological target: trypsin
Test: cell-based or functional assay

TrxA-PI2JO fusion protein (thioredoxin fused to potato proteinase inhibitor II isomer PI2JO, from plasmid pKBEPI-5 in E. coli BL21trxB(DE3)) (from UniProt P0AA25 1-109)
Trypsin inhibition activity (hydrolysis of TAME by trypsin followed at 247 nm; one unit = amount causing 50% inhibition of trypsin) (Trypsin-Inhibition-Unit/mL): 1390
